As usually defined, the Kd is a measure of binding affinity in units of concentration. A low value points to tighter binding.

For assay [1], the target named is IGFR1 (human). The assay can be described thus: SPR, 25C. On the technique in general: SPR reads the build-up and loss of mass on a sensor chip optically.
Assay [2] deals with IGFR1 (human). The assay can be described thus: SPR, 37C.

Sequence of IGFR1 (human) (B1B5Y2 whole entry): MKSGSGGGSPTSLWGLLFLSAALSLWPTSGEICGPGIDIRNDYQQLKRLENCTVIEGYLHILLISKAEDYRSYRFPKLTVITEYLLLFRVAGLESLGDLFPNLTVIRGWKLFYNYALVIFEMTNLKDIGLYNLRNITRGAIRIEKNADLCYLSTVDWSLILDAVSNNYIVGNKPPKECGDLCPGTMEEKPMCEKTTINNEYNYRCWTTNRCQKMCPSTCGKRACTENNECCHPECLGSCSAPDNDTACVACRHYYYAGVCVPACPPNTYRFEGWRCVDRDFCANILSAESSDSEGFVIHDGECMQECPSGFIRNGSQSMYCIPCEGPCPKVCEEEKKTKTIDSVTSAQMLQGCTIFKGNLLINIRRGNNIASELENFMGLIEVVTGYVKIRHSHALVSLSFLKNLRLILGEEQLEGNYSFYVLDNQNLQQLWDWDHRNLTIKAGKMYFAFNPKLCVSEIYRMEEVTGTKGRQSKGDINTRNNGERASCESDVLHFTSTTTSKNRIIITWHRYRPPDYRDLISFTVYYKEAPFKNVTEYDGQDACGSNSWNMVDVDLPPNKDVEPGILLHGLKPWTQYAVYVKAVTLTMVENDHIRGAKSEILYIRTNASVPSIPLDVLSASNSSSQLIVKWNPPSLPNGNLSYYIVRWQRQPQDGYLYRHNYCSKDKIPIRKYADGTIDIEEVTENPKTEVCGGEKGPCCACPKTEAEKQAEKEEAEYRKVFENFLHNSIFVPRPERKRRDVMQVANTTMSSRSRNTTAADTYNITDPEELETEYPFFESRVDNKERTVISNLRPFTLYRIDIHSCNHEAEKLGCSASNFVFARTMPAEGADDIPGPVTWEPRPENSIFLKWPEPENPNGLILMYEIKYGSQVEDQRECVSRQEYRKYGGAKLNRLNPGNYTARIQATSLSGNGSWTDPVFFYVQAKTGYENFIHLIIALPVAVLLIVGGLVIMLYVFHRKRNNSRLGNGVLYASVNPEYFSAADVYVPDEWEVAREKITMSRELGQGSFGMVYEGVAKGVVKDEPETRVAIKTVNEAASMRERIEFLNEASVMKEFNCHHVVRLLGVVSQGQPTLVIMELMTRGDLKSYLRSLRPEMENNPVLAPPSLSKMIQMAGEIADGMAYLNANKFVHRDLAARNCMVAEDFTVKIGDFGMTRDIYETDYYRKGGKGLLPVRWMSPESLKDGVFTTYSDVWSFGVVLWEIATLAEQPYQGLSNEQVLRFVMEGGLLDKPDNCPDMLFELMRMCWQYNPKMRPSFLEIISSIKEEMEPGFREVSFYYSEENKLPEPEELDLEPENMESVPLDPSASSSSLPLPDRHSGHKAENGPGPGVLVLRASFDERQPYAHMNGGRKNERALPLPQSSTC

B1: 1H3 (antibody, V domains shown)
VH: EVQLVQSGGGLVLPGGSLRLSCAGSGFTFSNYAMHWIRQAPGKGLEWVSAIGAGGDTYYADSVKGRFTISRDNAKDSLYLQMNSLRAEDMAVYYCARGRHRNWYYYNKDYWGQGTLVTVSS
VL: EIVLTQSPATLSLSPGERATLSCRASQSVSSFLAWYQQKPGQAPRLLIYDASNRAPGIPARFSGSGSGTDFTLTISSLEPEDFAVYYCQQRSNWPRWTFGQGTKVEIKR
In the assay with IGFR1 [1], B1 registered a Kd of 0.86 nM.

B2: 19D12 (antibody, V domains shown)
VH: EVQLVQSGGGLVHPGGSLRLSCAASGFTFSSFAMHWVRQAPGKGLEWISVIDTRGATYYADSVKGRFTISRDNAKNSLYLQMNSLRAEDMAVYYCARLGNFYYGMDVWGQGTTVTVSS
VL: EIVLTQVPDFQSVTPKEKVTITCRASQSIGSSLHWYQQKPDQSPKLLIKYASQSLSGVPSRFSGSGSGTDFTLTINSLEAEDAAAYYCHQSSRLPHTFGGGTKVEIKR
In the case of B2, the Kd came to 0.0592 nM with IGFR1 [1] and 0.0722 nM in the assay with IGFR1 [2].

B3: 15H12 (antibody, V domains shown)
VH: EVQLVQSGGGLVHPGGSLRLSCAASGFTFSSFAMHWVRQAPGKGLEWISVIDTRGATYYADSVKGRFTISRDNAKNSLYLQMNSLRAEDMAVYYCARLGNFYYGMDVWGQGTTVTVSS
VL: EIVLTQVPDFQSVTPKEKVTITCRASQSIGSSLHWYQQKPDQSPKLLIKYASQSLSGVPSRFSGSGSGTDFTLTINSLEAEDAAAYYCHQSSRLPHTFGGGTKVEIKR
On to B3, for which the Kd stood at 0.0448 nM with IGFR1 [1] and 0.0557 nM with IGFR1 [2].

The values above are taken from US7667021 (dated 2010).
